Measured values reported in US20070172504A1, “In vivo cell surface engineering” (University of Lousville Research Foundation, Inc., priority 2005, published 2007).

Columns and labels:
[1] = tested on: A20 B lymphoma cells; test: in vivo engineering of solid A20 tumors (intratumoral biotin, then CD80-CSA); parameters: species or system Balb/c mice
Description: One million live A20 B lymphoma cells were injected subcutaneously to the right flank of naïve syngeneic Balb/c mice. When the tumor size reached 7-9 mm in diameter, 300 μL of 1 mM EZ-Link Sulfo-NHS-LC-Biotin in PBS was injected into the tumor, followed 24 hrs later by intratumoral injection of 40 μg of CD80-CSA fusion protein in 150 μL PBS. Tumor cells were harvested and analyzed 24 hrs after protein injection. Biotin levels were detected by streptavidin-APC and fusion protein levels were detected by an antibody against CD80. Cells from untreated tumors and biotinylated tumors were used as negative controls for biotin and CD80, respectively.

[2] = tested on: peripheral blood lymphocytes from healthy volunteers; test: MLTR assay with tumor cells engineered with CD80-CSA; type: cell-based, human; conditions: HEC-1-A endometrial cancer cell line engineered with CD80-CSA
[3] = tested on: splenocytes; test: in vivo kinetics of protein display on ex vivo engineered splenocytes; conditions: 15 μM biotin, 100 ng/1×10^6 cells, injected intravenously into syngeneic animals
Description: The kinetics of persistence of the exogenous proteins on the cell surface was determined in vivo. Splenocytes were modified with biotin (15 μM), engineered with an CD80-CSA fusion protein (100 ng/1×10^6 cells), labeled with CFSE, and injected intravenously into syngeneic animals. Splenocytes and LN cells were harvested various days post-injection and analyzed for the presence of fusion protein on CFSE positive cells. CD80-CSA persisted on the surface of splenocytes with a t1/2 of >10 days. FIG. 9.

[4] = tested on: A20 B lymphoma cells; test: quantification of CD80-CSA molecules displayed per cell (Quantum-27 MESF kit); type: cell-based; conditions: 5 μM biotin, 100 ng protein
Description: Cells were stained with phycoerythrin (PE) conjugated anti-human CD80 antibody. The Quantum-27 MESF kit from Bangs Laboratories was used to estimate the number of CD80-CSA molecules per cell. Molecules of equivalent soluble fluorochrome (MESF) for the samples were calculated according to the calibration curve constructed by five MESF beads with varying MESF values (0, 727, 2737, 10110, 41738) using Cell Quest analysis program (Becton Dickinson Biosciences). The data for each sample was converted into MESF values. FIG. 10.

[5] = tested on: LLC cells; test: ex vivo co-display of fusion proteins on biotinylated LLC cells (flow cytometry); type: cell-based; conditions: 15 μM biotin, 100 ng/protein/10^6 cells
Description: (§1) Engineering of cell surfaces. LLC or A20 tumor cells are washed with ice-cold PBS and incubated at 2×10^7 cells/ml in PBS, pH 8.0, containing 5-15 μM EZ-Link™ Sulfo-NHS-LC-Biotin (Pierce) at room temperature for 30 min. Cells are washed extensively and incubated at 1×10^6 cell/ml with 100 ng/purified immune co-stimulatory-streptavidin fusion protein for 45 min at 4° C. After extensive washing with PBS, cells are processed for flow cytometric analysis to assess the cells engineered with the immune co-stimulatory fusion proteins. Such cells also are used for functional studies in vitro. Cells are irradiated at 100 Gy prior to being used in in vitro studies.
One million LLC cells were biotinylated using 15 μM of EZ-Link™ Sulfo-NHS-LC-Biotin derivative from Pierce Biotechnology, Inc. (Rockford, Ill.) in PBS at room temperature for 20-30 minutes. Biotin was then removed by centrifugation, cells were washed once, transferred into a clean second tube, washed 1-2 more times, and then contacted with CD80-CSA and 4-1BBL-CSA fusion proteins at 100 ng/protein/10^6 cells in PBS for 30-45 minutes on ice. Cells were then washed extensively and used for staining with saturating concentrations of various fluorochrome-conjugated antibodies to CD80 and 4-1BBL in PBS by incubation on ice for 30-45 minutes. Cells were then washed extensively with FACS medium and used for flow cytometric analysis. […] FIG. 8.

[6] = tested on: A20 cells; test: effect of timing of CD80-CSA administration after biotinylation of A20 tumors; type: in vivo, BALB/c mice
Description: A similar protocol was followed to evaluate the effect of the timing of the CD80-CSA administration subsequent to biotinylation. 1×10^6 A20 cells were injected subcutaneously into the right back flank of naïve BALB/c mice. Tumor growth was monitored and measured using calipers three times a week. When the tumor size reached 7-9 mm average diameter, 300 μl of 5 mM biotin solution (EZ-Link Sulfo-NHS-LC-Biotin in PBS) was injected into the tumors. At 2, 4, 8 or 16 hours after biotin injection, biotinylation was assessed as described above and 50 μg of CD80-SA was administered by intratumoral injection. (Some animals were left untreated as negative controls.) Animals were euthanized 16 hours after CD80-SA injection. Tumors were processed into single cell suspensions, and fusion protein levels were detected by an antibody against CD80 using flow cytometry. The results (FIG. 16) show a greater percentage of biotinylated cells decorated when the fusion protein was administered 16 hours after biotin administration, with 62% of biotinylated cells being decorated, compared to 49%, 31% and 10% at 8, 4 and 2 hours post-biotin administration, respectively.

[7] = tested on: A20 cells; test: ex vivo co-display of fusion proteins on biotinylated A20 cells (flow cytometry); type: cell-based; conditions: 5 μM biotin, 100 ng/protein/10^6 cells
Description: as §1
A20 cells were biotinylated (5 μM) and then contacted with CD80-CSA and 4-1BBL-CSA fusion proteins at 100 ng/protein/10^6 cells, following procedures similar to those set forth above.

[8] = tested on: CD4^+ or CD8^+ T cells; test: proliferation of CFSE-labeled T cells against A20 cells decorated with 4-1BBL; type: cell-based, C57B/6 (H2-K^b) mice; conditions: 4:1 ratio, 4 days co-culture, flow cytometry
Description: CD4^+ and CD8^+ T cells were FACS-sorted from spleens and lymph nodes of naïve C57B/6 (H2-K^b) mice and were stained with carboxyfluorescein diacetate succinimidylester (CFSE). Briefly, cells were washed with PBS, incubated in 4 ml of 2.5 μM CFSE/1×10^6 cells for 7 minutes at room temperature. Cells were then incubated in two volumes of FBS for 1 min, and washed 2 times with PBS. A20 B lymphoma cells (H2-K^d) were washed in PBS and biotinylated using freshly prepared EZ-Link Sulfo-NHS-LC-Biotin in PBS (1 ml solution per 50×10^6 cells) for 30 min at room temperature. After washing with PBS, cells were irradiated at 10000 cGy. Biotinylated and irradiated A20 cells were incubated with CSA-4-1BBL (100 ng/1×10^6cells) or control protein CSA (38 ng/1×10^6 cells) in 5 ml tubes for 30 minutes in a cold room. After washing the cells extensively, some of the cells were stained with fluorochrome conjugated antibodies against 4-1BBL and streptavidin to detect the decoration, or with fluorochrome conjugated streptavidin to detect biotinylation. […]
Proliferation of T cells were determined using flow cytometry after staining cells with fluorochrome conjugated anti-CD4 or anti-CD8 antibodies.

B1: CD80-CSA: chimeric protein comprising the extracellular domain of human B7.1 (CD80) and core streptavidin (SEQ ID NO:4) (protein)
chain: SPVQLKGGSDLNMKLCILLAVVAFVGLSLGRSIHVTKEVKEVATLSCGHNVSVEELAQTRIYWQKEKKMVLTMMSGDMNIWPEYKNRTIFDITNNLSIVILALRPSDEGTYECVVLKYEKDAFKREHLAEVTLSVKADFPTPSISDFEIPTSNIRRIICSTSGGFPEPHLSWLENGEELNAINTTVSQDPETELYAVSSKLDFNMTTNHSFMCLIKYGHLRVNQTFNWNTTKQERSHHHHHHITGTWYNQLGSTFIVTAGADGALTGTYESAVGNAESRYVLTGRYDSAPATDGSGTALGWTVAWKNNYRNAHSATTWSGQYVGGAEARINTQWLLTSGATEANAWKSTLVGHDTFTKVKPSAASSRILQISSTVAAARV
Question: With B1 as the molecule, how does the “tumor cells positive for CD80” value ([1]; 40 μg intratumorally 24 hrs after biotin, 24 hrs after protein injection) read?
Answer: 81%

Question: What about the “biotin positive cells displaying protein” value ([1]; I mM biotin followed by 40 μg 24 hrs later) of the same molecule?
Answer: > 80%

Question: What about the “proliferative response of peripheral blood lymphocytes” value [2] of the same molecule?
Answer: potent proliferative responses

Question: And the “t1/2 of persistence on the surface of splenocytes in vivo” value [3]?
Answer: > 240 h

Question: And the “average number of molecules per cell” value [4]?
Answer: 118,000 molecules per cell

Question: What about the “display on the surface of tumor cells” value [5] of the same molecule?
Answer: co-displayed on the surface of tumor cells at comparable levels

Question: What about the “biotinylated cells being decorated” value ([6]; 50 μg intratumorally 2 hours after 5 mM biotin) of the same molecule?
Answer: 10%

Question: What about the “biotinylated cells being decorated” value ([6]; 50 μg intratumorally 4 hours after 5 mM biotin) of the same molecule?
Answer: 31%

Question: And the “biotinylated cells being decorated” value ([6]; 50 μg intratumorally 8 hours after 5 mM biotin)?
Answer: 49%

Question: What about the “biotinylated cells being decorated” value ([6]; 50 μg intratumorally 16 hours after 5 mM biotin) of the same molecule?
Answer: 62%

Question: What about the “display on the surface of tumor cells” value [7] of the same molecule?
Answer: co-displayed on the surface of tumor cells at comparable levels

B2: 4-1BBL-CSA: CSA-murine 4-1 BBL fusion protein (SEQ ID NOs 5 and 6) (protein)
chain: FMQLKGGSDLNMKLCILLAVVAFVGLSLGRSHHHHHHITGTWYNQLGSTFIVTAGADGALTGTYESAVGNAESRYVLTGRYDSAPATDGSGTALGWTVAWKNNYRNAHSATTWSGQYVGGAEARINTQWLLTSGATEANAWKSTLVGHDTFTKVKPSAASSEFRTEPRPALTITTSPNLGTRENNADQVTPVSHIGCPNTTQQGSPVFAKLLAKNQASLCNTTLNWHSQDGAGSSYLSQGLRYEEDKKELVVDSPGLYYVFLELKLSPTFTNTGHKVQGWVSLVLQAKPQVDDFDNLALTVELFPCSMENKLVDRSWSQLLLLKAGHRLSVGLRAYLHGAQDAYRDWELSYPNTTSFGLFLVKPDNPWE
Question: Which “display on the surface of tumor cells” value [5] does the source give for B2 here?
Answer: co-displayed on the surface of tumor cells at comparable levels

Question: And the “display on the surface of tumor cells” value [7]?
Answer: co-displayed on the surface of tumor cells at comparable levels

Question: And the “proliferative response of T cells against decorated A20 cells” value [8]?
Answer: 52.6%
